B1: POU domain, class 3, transcription factor 1, residues 247 to 324; numbered along this chain, Q03052 (parent)
chain: EDAPSSDDLEQFAKQFKQRRIKLGFTQADVGLALGTLYGNVFSQTTICRFEALQLSFKNMCKLKPLLNKWLEETDSSS

Variants of: B1
Assay: abundance fitness (aPCA) (normalised: wild type 0, dead -1); higher = more abundant; growth selection in yeast, the domain comes from the species named
Conditions: Homo sapiens

Abundance fitness of substitutions, site by site:
V30: F -0.485, P -0.787, M -0.65, L -0.175, E -0.601, T -0.807, I -0.055, R -0.975, K -0.425, H -0.303, C -0.319, A -0.411, W -0.386, N -0.281, Q -0.759, G -0.957
T26: L -0.699, G -0.456, A -0.497, S -0.093, P -0.919, Q -0.192, W -0.998, I -0.951, M -0.559, D -0.86, K -0.746, V -0.724, E -0.298, N -0.436, H -0.15
A28: C -0.239, M -0.149, G -0.083, E -0.008, T -0.037, Q -0.225, K -0.111, Y -0.213, N -0.285, H -0.24, L -0.405, R 0.069, S -0.237, P -0.758, V -0.495, I -0.608, D -0.317, W -0.371
D29: T -0.512, S -0.28, G -0.241, V -0.679, N -0.729, H -0.213, Q 0.184, C -0.592, L -0.547, F -0.835, M -0.654, A -0.134, W -0.631, P -0.614, K -0.057, R -0.316
L23: T -0.647, Q -0.31, R -0.313, S -0.59, D -0.301, M 0.124, C -0.629, I -1, W -0.224, E -0.47, G -0.56, V -0.686, F -0.219, A -0.226
K17: A -0.178, E -0.8, S -0.354, P -0.667, W -0.879, D -0.893, T -0.001, C -0.868, Q 0.035, I 0.048, R 0.007, H -0.066, M -0.269
Q15: S -0.014, A -0.067, C -0.342, D 0, H -0.075, I 0.2, L -0.184, W -0.288, N 0.301, E -0.092, F -0.122, T -0.112, G -0.18, M 0.124, P -0.745, V -0.078, K -0.118, R -0.047
L34: G -0.866, K -0.698, D -0.415, F -0.408, S -0.859, M -0.158, V -0.464, R -0.844, P -0.772, T -0.311, C -0.397, A -0.42, I -0.536, W -0.914
K22: L -0.128, N 0.126, C -0.347, F -0.32, D 0.038, P -1.04, R -0.035, G -0.349, A 0.058, W -0.537, T -0.106, V -0.428, H 0.068, Y 0.071, I -0.743
G24: N -0.587, L -0.726, R -0.75, V -1.01, S -0.454, Q -0.796, I -1.02, K -0.423, W -0.806, M -0.78, D -0.7, P -0.73, T -0.805, A -0.739
R19: E -0.36, I -0.212, Q -0.218, H -0.456, W -0.484, L -0.613, G -0.495, T -0.04, K 0.259, N -0.071, M 0.023, P -0.79, V -0.586, S -0.232
F16: E -0.585, Q -0.541, V -0.515, R -0.621, P -0.789, G -0.572, I -0.532, N -0.713, D -0.83, M -0.612, W -0.736, T -0.429, A -0.779, L -0.633, K -0.61
K14: T -0.03, H 0.468, R -0.195, S -0.492, Y -0.233, W -0.419, F -0.386, N -0.211, I -0.19, L -0.159, Q 0.048, P -0.573
G35: K -0.125, Q -0.125, T 0.236, H -0.37, P -1.13, F -0.211, D -0.571, A -0.097, R 0.005, C -0.299, M -0.4, S 0.064
Q27: R -0.49, W -0.209, D -0.836, E 0.03, P -0.053, V -0.171, G -0.595, T -0.062, F -0.325, I 0.045, K -0.257, C 0.069, L -0.356, A -0.051, S -0.369, M -0.288, H 0.217
I21: H -0.64, Q -0.178, Y 0.147, K -0.349, A -0.391, F -0.827, L -0.184, M -0.236, G -0.689, W -0.544, R -0.338, P -1.18, E 0.005, D -0.527, C -0.521
Q18: T -0.034, C -0.428, K 0.138, R -0.204, M -0.472, F -0.304, P -1.16, V -0.316, N -0.276, E 0.028, Y -0.824, L -0.25, S -0.027, W -0.245, D -0.259, H 0.031, A 0.074
G31: Y -0.957, M -0.494, L -0.509, T -0.085, E -0.18, K -0.702, P -0.983, Q -0.337, R -0.46, A 0.161, W -0.444, S 0.04, N -0.437, V -0.262, D -0.417, H -0.228
A33: C -0.474, Q 0.096, H -0.332, N -0.075, E 0.047, K -0.067, L 0.003, V -0.255, T -0.405, W -0.195, D -0.504, I -0.317, F -0.105, P -0.645, Y -0.221
R20: G -0.896, P -0.744, V -0.636, T -0.815, F -0.353, M -0.915, W -0.973, H -0.508, I -0.971, S -0.813, L -0.637, E -0.845, D -0.645, A -0.653, K -1.11, Q -0.733
L32: M -0.039, C 0.095, Y -0.148, G -0.372, W -0.185, D 0.182, P -0.898, K 0.086, N -0.371, I 0.163, S 0.152, R 0.122, H 0.033, F 0.186, E -0.017, V -0.183, Q 0.148
F25: L -0.12, C -0.217, I -0.404, G -0.859, Y 0.112, Q -0.511, M -0.276, W -0.536, S -0.505, P -0.965, N -0.531, D -0.811, R -0.342, K -0.095, V -0.31

From the Human Domainome abundance scans (Beltran et al. 2025)
